From patent publication US7226755

Assays:
[1] = target: T1, recombinant GST fusion of the Tie-2 intracellular kinase domain
T1 chain: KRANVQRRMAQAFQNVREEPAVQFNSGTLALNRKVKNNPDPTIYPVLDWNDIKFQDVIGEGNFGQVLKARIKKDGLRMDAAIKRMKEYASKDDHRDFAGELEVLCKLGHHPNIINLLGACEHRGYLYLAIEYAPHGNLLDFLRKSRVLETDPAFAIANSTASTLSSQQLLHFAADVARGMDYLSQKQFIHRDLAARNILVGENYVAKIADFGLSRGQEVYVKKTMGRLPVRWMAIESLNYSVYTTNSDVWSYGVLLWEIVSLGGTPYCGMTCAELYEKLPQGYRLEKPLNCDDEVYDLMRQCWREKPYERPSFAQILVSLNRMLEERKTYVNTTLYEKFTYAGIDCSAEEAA

[2] = target: recombinant GST fusion of the VEGFR2 intracellular kinase domain
Sequence of recombinant GST fusion of the VEGFR2 intracellular kinase domain (chain, as listed by the source): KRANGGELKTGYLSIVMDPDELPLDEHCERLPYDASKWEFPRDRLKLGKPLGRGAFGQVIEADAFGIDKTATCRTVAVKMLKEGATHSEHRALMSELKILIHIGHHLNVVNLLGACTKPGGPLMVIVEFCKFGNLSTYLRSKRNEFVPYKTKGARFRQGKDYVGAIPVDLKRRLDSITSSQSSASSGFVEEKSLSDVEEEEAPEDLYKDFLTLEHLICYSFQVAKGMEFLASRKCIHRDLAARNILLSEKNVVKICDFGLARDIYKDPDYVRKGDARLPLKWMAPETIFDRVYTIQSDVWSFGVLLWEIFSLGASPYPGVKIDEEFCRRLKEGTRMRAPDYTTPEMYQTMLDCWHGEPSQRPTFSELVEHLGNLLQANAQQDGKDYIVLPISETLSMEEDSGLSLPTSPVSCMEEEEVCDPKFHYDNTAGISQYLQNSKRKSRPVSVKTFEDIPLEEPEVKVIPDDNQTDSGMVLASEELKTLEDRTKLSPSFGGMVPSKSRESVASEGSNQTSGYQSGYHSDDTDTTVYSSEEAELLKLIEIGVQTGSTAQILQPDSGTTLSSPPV

[3] = target: full length human Tie-2 receptor
[4] = target: full length human VEGF receptor type 2 (VEGFR2)
Sequence of full length human VEGF receptor type 2 (VEGFR2) (chain, as listed by the source): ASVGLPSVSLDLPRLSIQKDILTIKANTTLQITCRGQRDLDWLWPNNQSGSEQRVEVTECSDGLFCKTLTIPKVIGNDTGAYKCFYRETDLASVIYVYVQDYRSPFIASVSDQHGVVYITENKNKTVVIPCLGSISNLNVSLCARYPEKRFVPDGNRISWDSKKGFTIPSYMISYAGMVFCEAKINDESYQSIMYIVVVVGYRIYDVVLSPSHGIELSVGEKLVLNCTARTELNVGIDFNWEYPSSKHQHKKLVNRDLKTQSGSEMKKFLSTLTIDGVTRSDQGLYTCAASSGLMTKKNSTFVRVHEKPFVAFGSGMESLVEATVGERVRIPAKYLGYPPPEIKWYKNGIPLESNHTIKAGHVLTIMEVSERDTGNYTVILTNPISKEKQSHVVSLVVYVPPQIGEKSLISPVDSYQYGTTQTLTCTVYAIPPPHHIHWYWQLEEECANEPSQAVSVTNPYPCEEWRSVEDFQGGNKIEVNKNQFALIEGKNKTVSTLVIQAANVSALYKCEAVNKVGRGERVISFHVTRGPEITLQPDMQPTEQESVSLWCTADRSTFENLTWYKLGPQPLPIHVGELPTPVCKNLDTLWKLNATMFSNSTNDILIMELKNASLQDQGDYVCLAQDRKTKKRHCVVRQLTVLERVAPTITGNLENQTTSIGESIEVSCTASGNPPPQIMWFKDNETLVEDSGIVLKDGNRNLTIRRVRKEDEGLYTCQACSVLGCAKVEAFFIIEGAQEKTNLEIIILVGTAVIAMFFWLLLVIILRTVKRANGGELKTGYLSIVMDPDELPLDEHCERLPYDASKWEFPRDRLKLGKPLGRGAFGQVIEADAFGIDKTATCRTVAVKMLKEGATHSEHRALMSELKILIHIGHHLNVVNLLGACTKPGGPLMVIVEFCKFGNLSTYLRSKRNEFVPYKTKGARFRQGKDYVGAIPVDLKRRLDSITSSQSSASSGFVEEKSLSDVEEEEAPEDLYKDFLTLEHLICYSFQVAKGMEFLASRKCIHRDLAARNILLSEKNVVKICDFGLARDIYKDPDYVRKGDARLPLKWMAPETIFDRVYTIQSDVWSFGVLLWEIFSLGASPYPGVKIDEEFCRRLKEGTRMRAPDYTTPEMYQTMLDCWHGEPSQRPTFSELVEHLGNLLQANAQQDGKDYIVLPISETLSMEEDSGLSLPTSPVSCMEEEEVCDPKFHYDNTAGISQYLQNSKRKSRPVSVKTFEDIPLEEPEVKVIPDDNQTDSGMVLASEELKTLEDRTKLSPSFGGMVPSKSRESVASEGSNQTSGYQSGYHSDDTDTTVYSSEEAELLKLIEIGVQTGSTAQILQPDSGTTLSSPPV

B1: recombinant HPTPbeta catalytic domain (protein)
chain: GDRPLSVHLNLGQKGNRKTSCPIKINQFEGHFMKLQADSNYLLSKEYEELKDVGRNQSCDIALLPENRGKNRYNNILPYDATRVKLSNVDDDPCSDYINASYIPGNNFRREYIVTQGPLPGTKDDFWKMVWEQNVHNIVMVTQCVEKGRVKCDHYWPADQDSLYYGDLILQMLSESVLPEWTIREFKICGEEQLDAHRLIRHFHYTVWPDHGVPETTQSLIQFVRTVRDYINRSPGAGPTVVHCSAGVGRTGTFIALDRILQQLDSKDSVDIYGAVHDLRLHRVHMVQTECQYVYLHQCVRDVLRARKLRSEQHHHHHH
[1]
  anti-phosphotyrosine western blotting of the bead-bound autophosphorylated kinase domain after 2 hours at 37 C with increasing amounts of recombinant HPTPbeta: a dose dependent decrease in the phosphorylation of recombinant VEGFR2 and Tie-2
[2]
  anti-phosphotyrosine western blotting of the bead-bound autophosphorylated kinase domain after 2 hours at 37 C with increasing amounts of recombinant HPTPbeta: a dose dependent decrease in the phosphorylation of recombinant VEGFR2 and Tie-2

B2: full length HPTPbeta protein (splice variant lacking FNIII repeat 5) (protein)
chain: EPERCNFTLAESKASSHSVSIQWRILGSPCNFSLIYSSDTLGAALCPTFRIDNTTYGCNLQDLQAGTIYNFKIISLDEERTVVLQTDPLPPARFGVSKEKTTSTGLHVWWTPSSGKVTSYEVQLFDENNQKIQGVQIQESTSWNEYTFFNLTAGSKYNIAITAVSGGKRSFSVYTNGSTVPSPVKDIGISTKANSLLISWSHGSGNVERYRLMLMDKGILVHGGVVDKHATSYAFHGLTPGYLYNLTVMTEAAGLQNYRWKLVRTAPMEVSNLKVTNDGSLTSLKVKWQRPPGNVDSYNITLSHKGTIKESRVLAPWITETHFKELVPGRLYQVTVSCVSGELSAQKMAVGRTFPLAVLQLRVKHANETSLSIMWQTPVAEWEKYIISLADRDLLLIHKSLSKDAKEFTFTDLVPGRKYMATVTSISGDLKNSSSVKGRTVPAQVTDLHVANQGMTSSLFTNWTQAQGDVEFYQVLLIHENVVIKNESISSETSRYSFHSLKSGSLYSVVVTTVSGGISSRQVVVEGRTVPSSVSGVTVNNSGRNDYLSVSWLLAPGDVDNYEVTLSHDGKVVQSLVIAKSVRECSFSSLTPGRLYTVTITTRSGKYENHSFSQERTVPDKVQGVSVSNSARSDYLRVSWVHATGDFDHYEVTIKNKNNFIQTKSIPKSENECVFVQLVPGRLYSVTVTTKSGQYEANEQGNGRTIPEPVKDLTLRNRSTEDLHVTWSGANGDVDQYEIQLLFNDMKVFPPFHLVNTATEYRFTSLTPGRQYKILVLTISGDVQQSAFIEGFTVPSAVKNIHISPNGATDSLTVNWTPGGGDVDSYTVSAFRHSQKVDSQTIPKHVFEHTFHRLEAGEQYQIMIASVSGSLKNQINVVGRTVPASVQGVIADNAYSSYSLIVSWQKAAGVAERYDILLLTENGILLRNTSEPATTKQHKFEDLTPGKKYKIQILTVSGGLFSKEAQTEGRTVPAAVTDLRITENSTRHLSFRWTASEGELSWYNIFLYNPDGNLQERAQVDPLVQSFSFQNLLQGRMYKMVIVTHSGELSNESFIFGRTVPASVSHLRGSNRNTTDSLWFNWSPASGDFDFYELILYNPNGTKKENWKDKDLTEWRFQGLVPGRKYVLWVVTHSGDLSNKVTAESRTAPSPPSLMSFADIANTSLAITWKGPPDWTDYNDFELQWLPRDALTVFNPYNNRKSEGRIVYGLRPGRSYQFNVKTVSGDSWKTYSKPIFGSVRTKPDKIQNLHCRPQNSTAIACSWIPPDSDFDGYSIECRKMDTQEVEFSRKLEKEKSLLNIMMLVPHKRYLVSIKVQSAGMTSEVVEDSTITMIDRPPPPPPHIRVNEKDVLISKSSINFTVNCSWFSDTNGAVKYFTVVVREADGSDELKPEQQHPLPSYLEYRHNASIRVYQTNYFASKCAENPNSNSKSFNIKLGAEMESLGGKCDPTQQKFCDGPLKPHTAYRISIRAFTQLFDEDLKEFTKPLYSDTFFSLPITTESEPLFGAIEGVSAGLFLIGMLVAVVALLICRQKVSHGRERPSARLSIRRDRPLSVHLNLGQKGNRKTSCPIKINQFEGHFMKLQADSNYLLSKEYEELKDVGRNQSCDIALLPENRGKNRYNNILPYDATRVKLSNVDDDPCSDYINASYIPGNNFRREYIVTQGPLPGTKDDFWKMVWEQNVHNIVMVTQCVEKGRVKCDHYWPADQDSLYYGDLILQMLSESVLPEWTIREFKICGEEQLDAHRLIRHFHYTVWPDHGVPETTQSLIQFVRTVRDYINRSPGAGPTVVHCSAGVGRTGTFIALDRILQQLDSKDSVDIYGAVHDLRLHRVHMVQTECQYVYLHQCVRDVLRARKLRSEQENPLFPIYENVNPEYHRDPVYSRH
[3]
  ligand-induced phosphorylation of the endogenous receptor (anti-phosphotyrosine western blot of immunoprecipitated receptor) in Ang1 stimulated HUVECs: adenoviral overexpression of HPTPbeta in endothelial cells decreased in ligand-induced phosphorylation of the endogenous VEGFR2 and Tie-2 receptors
[4]
  ligand-induced phosphorylation of the endogenous receptor (anti-phosphotyrosine western blot of immunoprecipitated receptor) in VEGFA stimulated HUVECs: adenoviral overexpression of HPTPbeta in endothelial cells decreased in ligand-induced phosphorylation of the endogenous VEGFR2 and Tie-2 receptors
